± gives the uncertainty stated by the source.
Assay: amyloid nucleation score (Sup35N fusion, yeast selection) (log enrichment); library NNK2; higher = more nucleation; inactive = no reads after selection
How it was run: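 Peptides of 20 random codons, each fused to Sup35N, were expressed in psi-negative yeast. Cells were induced with 100 μM copper sulfate for 24 hours and grown 7 days at 30°C on medium lacking adenine and uracil, and plasmid inserts before and after selection were Illumina-sequenced. Nucleation scores are DiMSum log enrichments of output over input reads, centred on the mode score of non-aggregating sequences, and sequences under 100 input reads were excluded.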

| Substance | amyloid nucleation score |
| --- | --- |
| DVLGLSGACFGITERVDRLA | 2.32 ± 0.1 |
| DVPLCLYCMYLSSFRVVIWM | 2.35 ± 0.1 |
| DVQGWFVITSGFADGSQARR | 1.19 ± 0.17 |
| DVRHQWFEMVRVVIICKPVN | -0.149 ± 0.42 |
| DVRSRVHWDMSDQQFIMWWV | -0.716 ± 1.1 |
| DWCWAMDLYSFVFHCRLEAF | -0.658 ± 1 |
| DYDNW | -0.618 ± 1.1 |
| DYKDYNLCGITHMESF | -0.442 ± 1 |
| DYLCGNFKCYCVFTNDGNRF | 2.42 ± 0.21 |
| DYLRYRYSMFCTCPAVTQS | -0.567 ± 0.78 |
| DYRMCI | 0.926 ± 0.48 |
| DYSGYHFMEQVP | -0.363 ± 0.33 |
| DYSSVVYNDGIWKGAPNFK | -2.05 ± 0.78 |
| DYTSVSMVIHVCKRL | 5.59 ± 0.097 |
| DYVSRKCFRDKWSERSSCRG | 0.085 ± 0.37 |
| DYYRPIIGH | -0.407 ± 0.28 |
| EAFYLSFFN | inactive |
| EARVSRLFT | 0.542 ± 0.18 |
| ECDYRTLSLNMVLNYCRKGG | 5.955 ± 0.046 |
| ECNSSALHNWKY | 0.088 ± 0.54 |
| ECSHQIL | -0.179 ± 0.63 |
| EDAFMSFCMVRLWDHF | -0.089 ± 1.1 |

| Substance | amyloid nucleation score |
| --- | --- |
| EDIGSGGKTRFLDRRWVFCN | inactive |
| EDKLFINLSRELVFGKIRPT | 6.138 ± 0.053 |
| EESSTKGMTG | -0.014 ± 0.26 |
| EFMNDVIILIYLSFKRTILN | -0.541 ± 1.1 |
| EFMYKQCRYIVTPYGLVVSR | -0.557 ± 1.1 |
| EFRNLT | -0.213 ± 0.18 |
| EFTAFYGQEFKW | 0.182 ± 1.1 |
| EGICFLLMDCSCNNCFLALA | 4.66 ± 0.055 |
| EGLRVEMCYGKNVSFMIGSY | 5.727 ± 0.049 |
| EGMSI | inactive |
| EHLWYLIREIPNHEFKNKLE | 0.073 ± 0.42 |
| EIMSFSVRSKYAFWIPIAIC | -0.026 ± 0.53 |
| EIQHRNTAYYRSVSVGPTAV | 0.987 ± 0.67 |
| EIYCCAYPLFCVWVVTGIRL | 1.62 ± 0.13 |
| ELSHSLSIKATVEGS | 0.279 ± 0.56 |
| ELVRDASECRYIIVCLNSVA | -0.047 ± 0.65 |
| ELYWGS | 0.509 ± 0.57 |
| EMSGY | inactive |
| EMVQVVSAQGKTKL | 8.461 ± 0.061 |
| ENCFVSICVGSATLGMCSSG | 8.02 ± 0.034 |
| ENKGGCFARVDVGCVGSGMR | 0.014 ± 0.42 |
| ENLKCEPLGRVRLKDHVYVV | 0.228 ± 0.27 |

| Substance | amyloid nucleation score |
| --- | --- |
| ENNVKLIRNTTNTVVYHLIP | 7.64 ± 0.06 |
| EPHSAI | -0.1 ± 1 |
| ERKHTFHAVGHGLQESLVRF | -0.212 ± 0.45 |
| ERMSLMGWDFIKCRISLAMS | -0.021 ± 0.65 |
| ERNLLRNSDDMD | -0.642 ± 1.1 |
| ERYVCKGC | inactive |
| ESIRAGLRRSRLWNRGFGES | 0.738 ± 0.27 |
| ESLGDSI | -0.352 ± 1 |
| ESNMSKLAFRRDTVF | inactive |
| ESRGSCSIKNYRLVWDC | -0.451 ± 0.74 |
| ESSSVKPPVRFLW | 0.455 ± 0.64 |
| ESYIWMLRGHMLCKDEVMNV | -0.611 ± 0.74 |
| ETLAVLRIPCSRLYDHIYNF | -0.791 ± 0.78 |
| ETTNTQVNAIVRNFGQ | 0.002 ± 0.55 |
| EVEIEE | -0.576 ± 0.76 |
| EVERGIN | 0.62 ± 0.56 |
| EVFACTSG | 1.56 ± 0.44 |
| EVMCMSRYDPR | -0.557 ± 1.1 |
| EVRIDHGHVIA | 0.293 ± 0.43 |
| EWIIERRSL | -0.279 ± 0.63 |
| EWVMKSWV | -0.578 ± 1.1 |
| EYEYGGYNSMNLNYIVARSE | 0.218 ± 0.48 |

| Substance | amyloid nucleation score |
| --- | --- |
| EYLRPSWSH | -0.971 ± 0.56 |
| EYNDRCV | 0.974 ± 0.28 |
| EYRYCMTHYYFLRCKLFNIF | -1.06 ± 0.63 |
| FAAHCFDFMIHVPMGPAENK | 3.69 ± 0.13 |
| FACFI | 0.271 ± 0.25 |
| FAGWIYGCTDRMVCLCSGGF | inactive |
| FAHAIVSHDWDQRVRGWSGC | 0.836 ± 0.41 |
| FAKCHFSQSARYIY | inactive |
| FALLPCDKVCLGVREWFNFG | inactive |
| FANRILCVVSGINRVTGL | 0.192 ± 0.34 |
| FAPCNCSCVK | 0.827 ± 0.58 |
| FAYFDDLGVLMLYQLNRMSL | -0.097 ± 1.1 |
| FCCHHCITGITEKAN | 0.674 ± 0.36 |
| FCEICPKYYALFEEGQLSGR | 3.62 ± 0.068 |
| FCESCKWNL | 1.29 ± 0.14 |
| FCIPYGGLIDTA | -1.52 ± 0.41 |
| FCLIHVVM | 1.32 ± 0.27 |
| FCMAISFQCVNTRGFMPTAG | 7.394 ± 0.071 |
| FCRIAATTRHMHGGLVGRWS | 1.04 ± 0.68 |
| FCYAYTFMHEYLRGC | 0.737 ± 0.3 |
| FDALY | 0.025 ± 0.25 |
| FDFLSSFPRLWVRVEGIPCF | -0.994 ± 0.55 |

| Substance | amyloid nucleation score |
| --- | --- |
| FDGLIFSITRTLVY | -1.42 ± 1.1 |
| FDLCTLFYNSRFHIIRYWVT | inactive |
| FDQSFFNLPQGTFLVLYSSA | inactive |
| FDWFNAYSF | 0.092 ± 0.61 |
| FDYAQRWSQP | 0.121 ± 0.49 |
| FEIGSV | inactive |
| FELLPTR | 3.3 ± 0.079 |
| FEMGFHVWDM | inactive |
| FENDFMRVSCDGSRGILCVL | 2.48 ± 0.11 |
| FEPWWCNSIMRLVVIEGEW | 0.315 ± 0.46 |
| FFCMA | 5.48 ± 0.056 |
| FFDRMLYLRVARCTTFWPVD | 0.492 ± 0.64 |
| FFDYIGRYYNLKH | inactive |
| FFFDDSKVYQNWEEDVEGNQ | -0.389 ± 0.34 |
| FFFKSSLLR | 0.241 ± 0.8 |
| FFFVFVGDVR | 2.08 ± 0.15 |
| FFGAFGPRWGNYENITLCSY | inactive |
| FFIGIQQWSYHWPVVGVYNK | inactive |
| FFKLNVRERYWLVKGKSRFR | 2.96 ± 0.087 |
| FFMYHAVL | 1.02 ± 0.34 |
| FFNLNYMGFHSDIGSLIYPC | inactive |
| FFTMCVAMYVVRSAYGMHN | -0.03 ± 0.44 |

| Substance | amyloid nucleation score |
| --- | --- |
| FFTRRLNSNWMCFLADNCYR | -0.439 ± 0.64 |
| FFWFQTSLDTPWKEVILVYI | -0.719 ± 0.79 |
| FFWNM | -0.274 ± 0.34 |
| FGCNSSGWNVKIPSGGLGNE | -0.647 ± 0.53 |
| FGDVQKPVRMLFVFSFWLLG | -0.392 ± 0.79 |
| FGFCGFMVHVGLVRDFLFC | 0.257 ± 0.56 |
| FGFSEGEMVPSFI | -1.21 ± 1 |
| FGFVTKYFMGV | 1.96 ± 0.23 |
| FGIFVNRLCFSIDSYAGNGK | 6.605 ± 0.037 |
| FGKFFCCWSSLRNEKCYFAM | inactive |
| FGKNYNFCNV | -0.184 ± 0.63 |
| FGKYDGTYRSPVGYGFMWS | 0.397 ± 0.41 |
| FGLDYVTYVRWAGVCHLLYF | -0.56 ± 0.55 |
| FGLLLWYLCFSHIG | inactive |
| FGLQMQAWREKDHQENGLIQ | 0.798 ± 0.31 |
| FGLTRPEKWEHLHVYCNYMS | 0.615 ± 0.38 |
| FGLWQVPSGWNTADRA | 0.743 ± 0.58 |
| FGMILPFGDIFTLASDFRVR | -0.833 ± 1.1 |
| FGSLTMEEFGDGDVVSNNKG | -0.956 ± 0.31 |
| FGSVSSWELPRP | 0.197 ± 0.63 |
| FGTKHFVICSL | -0.989 ± 0.76 |

From the supplement of paper PMC12042874
